Test results published in US20220242962A1 (APTEVO RESEARCH AND DEVELOPMENT, published 2022).

T1: Full-length Human OX40 (human, UniProt P43489 29-277)
T1 sequence: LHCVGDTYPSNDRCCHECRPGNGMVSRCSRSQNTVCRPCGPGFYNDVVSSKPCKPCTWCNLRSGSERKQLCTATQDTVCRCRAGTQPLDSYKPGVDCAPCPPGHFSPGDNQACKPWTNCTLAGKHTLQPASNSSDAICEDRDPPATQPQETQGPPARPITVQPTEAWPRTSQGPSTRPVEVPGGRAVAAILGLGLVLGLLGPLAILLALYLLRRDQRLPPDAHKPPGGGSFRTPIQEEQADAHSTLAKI

T2: Human OX40 ECD-AFH (human)
T2 construct: ECD'; entry includes the C-terminal tags; also called OXF003; Human OX40 ECD-avi-flag-his
T2 chain: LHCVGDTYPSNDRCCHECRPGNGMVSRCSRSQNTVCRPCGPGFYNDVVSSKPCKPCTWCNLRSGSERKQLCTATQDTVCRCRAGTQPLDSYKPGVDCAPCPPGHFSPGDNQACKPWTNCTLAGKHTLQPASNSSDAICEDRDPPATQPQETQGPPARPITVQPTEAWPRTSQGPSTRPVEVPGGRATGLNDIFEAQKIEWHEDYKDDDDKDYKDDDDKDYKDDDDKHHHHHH

T3: Full-length Cyno 4-1BB (cynomolgus monkey, UniProt Q07011 24-255 (human entry))
T3 construct: on Jurkat or CHO cells; also called FOB006; cynomolgus 4-1BB
T3 chain: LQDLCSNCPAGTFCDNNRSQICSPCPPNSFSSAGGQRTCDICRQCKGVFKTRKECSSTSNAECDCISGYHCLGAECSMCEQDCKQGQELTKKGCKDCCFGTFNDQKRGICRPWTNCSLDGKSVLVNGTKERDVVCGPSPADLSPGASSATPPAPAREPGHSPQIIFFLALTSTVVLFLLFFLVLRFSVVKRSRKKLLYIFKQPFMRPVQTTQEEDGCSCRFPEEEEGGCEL

T4: Full-length Cyno OX40 (cynomolgus monkey, UniProt P43489 29-277 (human entry))
T4 construct: on CHO-K1SV cells; also called OXF004; cynomolgus OX40
T4 chain: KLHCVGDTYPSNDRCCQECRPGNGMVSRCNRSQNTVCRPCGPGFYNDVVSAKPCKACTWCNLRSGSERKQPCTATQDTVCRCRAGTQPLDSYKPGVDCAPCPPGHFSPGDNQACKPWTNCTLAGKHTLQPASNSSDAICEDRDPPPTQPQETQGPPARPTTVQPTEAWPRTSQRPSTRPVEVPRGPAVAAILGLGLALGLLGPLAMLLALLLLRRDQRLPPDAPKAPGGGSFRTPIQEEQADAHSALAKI

B1: FXX01107 (bispecific antibody)
chain: EIVMTQSPATLSLSPGERATLSCRASQSVSSYLNWYQQKPGQAPRLLIYYASRRHTGIPARFSGSGSGTDFTLTISSLQPEDFAVYYCQQGYNLPYTFGQGTKVEIKGGGGSGGGGSGGGGSGGGGSEVQLVQSGAEVKKPGASVKVSCKASGYTFTSYWMNWVRQAPGQGLEWMGNIYPSGGSTNYAQKFQGRVTMTVDTSTSTVYMELSSLRSEDTAVYYCASFSDGYYAYAMDYWGQGTLVTVEPKSSDKTHTCPPCPAPPAAAPSVFLFPPKPKDTLMISRTPEVTCVVVDVSHEDPEVKFNWYVDGVEVHNAKTKPREEQYNSTYRVVSVLTVLHQDWLNGKEYKCAVSNKALPAPIEKTISKAKGQPREPQVYTLPPSRDELTKNQVSLTCLVKGFYPSDIAVEWESNGQPENNYKTTPPVLDSDGSFFLYSKLTVDKSRWQQGNVFSCSVMHEALHNHYTQKSLSLSPGGGGSPSSYVLTQPPSVSVAPGQTARITCGGNNIGSKSVNWFQQKPGQAPVLVVYDDSGRPSGIPERFSGSTSGNTATLTISRVEAGDEADYYCQVWDSSSDHVVFGGGTKLTVLGGGGSGGGGSGGGGSGGGGSQVQLVESGGGVVQPGRSLRLSCAASGFTLSYYGMHWVRQAPGKGLEWVAAISHDGSDKYYADSVKGRFTISRDNSKNRLYLQMNSLRAEDTAVYYCSNDQFDPWGQGTLVTVSSR
notes: ADAPTIR anti-4-1BB (LH) x anti-OX40 with T86R; also called FX01107
B2: FXX01108 (bispecific antibody)
chain: EIVMTQSPATLSLSPGERATLSCRASQSVSSYLNWYQQKPGQAPRLLIYYASRRHTGIPARFSGSGSGTDFTLTISSLQPEDFAVYYCQQGYNLPYTFGQGTKVEIKGGGGSGGGGSGGGGSGGGGSEVQLVQSGAEVKKPGASVKVSCKASGYTFTSYWMNWVRQAPGQGLEWMGNIYPSGGSTNYAQKFQGRVTMTVDTSTSTVYMELSSLRSEDTAVYYCASFSDGYYAYAMDYWGQGTLVTVEPKSSDKTHTCPPCPAPPAAAPSVFLFPPKPKDTLMISRTPEVTCVVVDVSHEDPEVKFNWYVDGVEVHNAKTKPREEQYNSTYRVVSVLTVLHQDWLNGKEYKCAVSNKALPAPIEKTISKAKGQPREPQVYTLPPSRDELTKNQVSLTCLVKGFYPSDIAVEWESNGQPENNYKTTPPVLDSDGSFFLYSKLTVDKSRWQQGNVFSCSVMHEALHNHYTQKSLSLSPGGGGSPSSYVLTQPPSVSVAPGKTARITCGGNNIGSKSVNWFQQKPGQAPVLVVYDDSGRPSGIPERFSGSTSGNTATLTISRVEAGDEADYYCQVWDSSSDHVVFGGGTKLTVLGGGGSGGGGSGGGGSGGGGSQVQLVESGGGVVQPGRSLRLSCAASGFTLSYYGMHWVRQAPGKGLEWVAAISHDGSDKYYADSVKGRFTISRDNSKNRLYLQMNSLRAEDTAVYYCSNDQFDPWGQGTLVTVSSR
notes: ADAPTIR anti-4-1BB (LH) x anti-OX40 with Q17K and T86R
B3: K322A Fc (other)
chain: EPKSSDKTHTCPPCPAPEAAGAPSVFLFPPKPKDTLMISRTPEVTCVVVDVSHEDPEVKFNWYVDGVEVHNAKTKPREEQYNSTYRVVSVLTVLHQDWLNGKEYKCAVSNKALPAPIEKTISKAKGQPREPQVYTLPPSRDELTKNQVSLTCLVKGFYPSDIAVEWESNGQPENNYKTTPPVLDSDGSFFLYSKLTVDKSRWQQGNVFSCSVMHEALHNHYTQKSLSLSPG
notes: IgG1 Fc with L234A, L235A, G237A, K322A (EU); the listing labels the entry 'K332A'
B4: Null2 Fc (other, human, UniProt P01857-1 99-329, looked up, name in EU numbering)
chain: EPKSCDKTHTCPPCPAPEAAGAPSVFLFPPKPKDTLMISRTPEVTCVVVDVSHEDPEVKFNWYVDGVEVHNAKTKPREEQYNSTYRVVSVLTVLHQDWLNGKAYACAVSNKALPAPIEKTISKAKGQPREPQVYTLPPSRDELTKNQVSLTCLVKGFYPSDIAVEWESNGQPENNYKTTPPVLDSDGSFFLYSKLTVDKSRWQQGNVFSCSVMHEALHNHYTQKSLSLSPG
notes: domain: Fc region

What was measured:
Full-length Human 4-1BB [1] = molecular target: T5, Full-length Human 4-1BB (human, UniProt Q07011 24-255); experiment: cell-based or functional assay
Full-length Human OX40 [2] = molecular target: T1, Full-length Human OX40; experiment: cell-based or functional assay
Full-length Human 4-1BB [3] = molecular target: T5, Full-length Human 4-1BB; experiment: flow cytometry, Jurkat cells expressing human 4-1BB
Method: (§1) FIGS. 12A-12D show the binding of anti-4-1BB x anti-OX40 constructs, with additional humanization in 4-1BB and altered orientations of binding domains, human (12A) or cynomolgus (12C) 4-1BB-expressing Jurkat cells or human (12B) or cynomolgus (12D) OX40-expressing CHOK1SV cells. Serial dilutions of ADAPTIR™ constructs were incubated with transfected cells and subsequently labelled with a fluorescently-conjugated goat-a-human Fc secondary antibody. […] (See Example 19.)
(§2) Binding studies were performed using the flow cytometry-based staining procedures described above.

Human OX40 ECD-AFH = molecular target: T2, Human OX40 ECD-AFH; experiment: SPR, construct captured, monomeric ECD as analyte
Method: (§3) Mouse anti-human IgG (GE, BR-1008-39) at 25 μg/ml in 10 mM sodium acetate pH 5.0 was immobilized at a density of ˜10,000 response units (RU) onto each flow cell of a CM5 research-grade sensor chip (GE) by standard amine coupling chemistry. Each binding protein at approximately 100 nM in HBS-EP+ with 0.2% BSA buffer was captured in a flow cell with the immobilized anti-human IgG at a flow rate of 10 μL/min for 20 seconds, leaving one flow cell surface unmodified as the reference. Using a single-cycle kinetics mode, five different concentrations of ECD were sequentially injected through each flow cell at 30 μL/min for 300 seconds followed by a 600 second dissociation period. Regeneration was achieved by injection of 3 M MgCl₂ at a flow rate of 30 μL/min for 30 seconds followed by HBS-EP+ with 0.2% BSA buffer stabilization for 1 min.
(§4) Sensorgrams obtained from kinetic SPR measurements were analyzed by the double subtraction method. The signal from the reference flow cell was subtracted from the analyte binding response obtained from flow cells with immobilized or captured ligands. Buffer reference responses were then averaged from multiple injections. The averaged buffer reference responses were then subtracted from analyte binding responses, and the final double-referenced data were analyzed with Biacore T200 Evaluation software (2.0, GE), globally fitting data to derive kinetic parameters. All sensorgrams were fitted using a simple one-to-one binding model.
(§5) Protein was produced by transient expression, purified by ProA chromatography and prep SEC.

Human 4-1BB ECD-AFH = molecular target: T6, Human 4-1BB ECD-AFH (human); experiment: SPR, construct captured, monomeric ECD as analyte
T6 construct: entry includes the tags; also called FOB003; HUMAN CD137 ECD-AVI-FLAG-HIS
Method: as §3, §4, §5

Full-length Cyno 4-1BB = molecular target: T3, Full-length Cyno 4-1BB; experiment: flow cytometry on Jurkat cells transfected with cynomolgus 4-1BB, goat anti-human Fc secondary antibody, MFI (Mean)
Method: as §1, §2

Full-length Cyno OX40 = molecular target: T4, Full-length Cyno OX40; experiment: flow cytometry on CHOK1SV cells transfected with cynomolgus OX40, goat anti-human Fc secondary antibody, MFI (Mean)
Method: as §1, §2

Full-length Human OX40 [4] = molecular target: T1, Full-length Human OX40; experiment: flow cytometry, CHO cells expressing human OX40
Method: as §1, §2

[5] = molecular target: T7, Recombinant FcRn/b2M protein (human, UniProt P55899 24-297; P61769 21-119, limits assumed); experiment: SPR pH 6.0, FcRn/b2M immobilized, two-state reaction model
T7 construct: also called hFcRn/b2M; neonatal Fc receptor
Method: Recombinant FcRn/b2M protein was generated via transient transfection of HEK-293 cells with a bi-cistronic vector containing the genes for both FcRn and […]. The complex was purified using IMAC chromatography and subsequently buffer exchanged into IMAC elution buffer after verifying purity of the IMAC eluate by analytical SEC. hFcRn/b2M at 10 μg/ml in 10 mM sodium acetate (pH 4.5) was immobilized on a CM5 chip by direct amine coupling chemistry to a level of ˜600 RU. A reference flow cell was left blank.
Different concentrations of the Fc variant protein (5-80 nM by 2-fold dilutions in pH 6.0 running buffer) including running buffer as blank were injected in randomized order at 30 μL/min for 180 seconds followed by a 120 second dissociation period.
as §4, with “cell” for “cells”, “immobilized” for “immobilized or captured”, “was” for “responses were then averaged from multiple injections. The averaged buffer reference responses were then”, “two-state reaction model, as described in Weirong Wang et al, DrugMetab Dispos.: 39(9): 1469-77 (2011).” for “a simple one-to-one binding model.”

T6 sequence (chain, as listed by the source limits assumed): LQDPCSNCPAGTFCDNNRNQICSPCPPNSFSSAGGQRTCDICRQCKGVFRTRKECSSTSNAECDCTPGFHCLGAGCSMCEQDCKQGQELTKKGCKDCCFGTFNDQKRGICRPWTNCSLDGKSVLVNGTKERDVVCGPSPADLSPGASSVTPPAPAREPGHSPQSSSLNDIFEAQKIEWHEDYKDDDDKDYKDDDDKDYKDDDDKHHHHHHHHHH
T7 sequence (P55899 24-297 limits assumed, chain 1 of 2): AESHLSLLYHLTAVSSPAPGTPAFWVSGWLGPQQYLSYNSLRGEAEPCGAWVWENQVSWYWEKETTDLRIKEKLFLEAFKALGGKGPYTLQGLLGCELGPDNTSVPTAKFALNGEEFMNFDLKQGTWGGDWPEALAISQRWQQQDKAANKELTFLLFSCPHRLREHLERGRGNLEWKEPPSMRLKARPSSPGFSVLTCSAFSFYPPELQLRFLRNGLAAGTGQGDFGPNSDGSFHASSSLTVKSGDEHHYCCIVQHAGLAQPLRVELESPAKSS
T7 sequence (P61769 21-119 limits assumed, chain 2 of 2): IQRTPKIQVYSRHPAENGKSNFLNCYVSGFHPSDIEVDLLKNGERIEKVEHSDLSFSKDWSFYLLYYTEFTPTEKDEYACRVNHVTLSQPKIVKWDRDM

Row | Binder | 4-1BB Reporter Assay EC50 (Full-length Human 4-1BB [1]) | 4-1BB Reporter Assay Max induction (Full-length Human 4-1BB [1]) | OX40 Reporter Assay EC50 (Full-length Human OX40 [2]) | OX40 Reporter Assay Max induction (Full-length Human OX40 [2]) | EC50 (Full-length Human 4-1BB [3]) | max MFI (Full-length Human 4-1BB [3]) | Kd (Human OX40 ECD-AFH) | koff (Human OX40 ECD-AFH) | kon (Human OX40 ECD-AFH) | Kd (Human 4-1BB ECD-AFH) | koff (Human 4-1BB ECD-AFH) | kon (Human 4-1BB ECD-AFH) | EC50 (read off the curve) (Full-length Cyno 4-1BB) | EC50 (read off the curve) (Full-length Cyno OX40) | EC50 (Full-length Human OX40 [4]) | max MFI (Full-length Human OX40 [4]) | Kd [5]
1 | B1 | 0.016 nM | 6.85e+06 | 0.013 nM | 2.14e+06 | 0.26 nM | 4700 MFI | 0.5 nM | 0.00029 s⁻¹ | 630000 M⁻¹ s⁻¹ | 18 nM | 0.0056 s⁻¹ | 310000 M⁻¹ s⁻¹ | ~0.3 nM | ~0.8 nM | 0.29 nM | 10300 MFI | 
2 | B2 | 0.013 nM | 6.61e+06 | 0.013 nM | 2.07e+06 | 0.29 nM | 4770 MFI | 0.8 nM | 0.00039 s⁻¹ | 480000 M⁻¹ s⁻¹ | 18 nM | 0.0055 s⁻¹ | 310000 M⁻¹ s⁻¹ | ~0.3 nM | ~0.8 nM | 0.32 nM | 10300 MFI | 
3 | B3 |  |  |  |  |  |  |  |  |  |  |  |  |  |  |  |  | 22 nM
4 | B4 |  |  |  |  |  |  |  |  |  |  |  |  |  |  |  |  | 33 nM
